What was measured:
[1] = molecular target: sfGFP-ALFA-tag (3); assay: MST; 10 nM sfGFP-ALFA-tag (3) with a dilution series of photobody 1, before light activation
[2] = molecular target: ALFA-Pb displayed on E. coli cells (AIDA autodisplay system), photocaged, not irradiated; assay: flow cytometry on cells; E. coli cells displaying the nanobody (AIDA autodisplay system), not irradiated, mixed with a dilution series of fluorescent sfGFP-ALFA-tag (3)
[3] = molecular target: T1, sfGFP-ALFA-tag (3) (synthetic construct …); assay: flow cytometry on cells; E. coli cells displaying the ALFA-Pb irradiated in 100 uL PBS (OD600=1; 365 nm, 530 mW; 5 cm distance), then different concentrations of sfGFP-ALFA-tag (3) added; settings: one partner purified
T1 construct: ALFA-tag, laboratory-designed amphiphilic peptide of 13 amino acids; sfGFP is the fluorescent marker read in MST and flow cytometry; also called protein 3; fusion construct sfGFP-ALFA-tag
T1 chain: SRLEEELRRRLTE

[4] = molecular target: T1, sfGFP-ALFA-tag (3); assay: flow cytometry on cells; E. coli cells displaying the nanobody (AIDA autodisplay system), not irradiated, mixed with a dilution series of fluorescent sfGFP-ALFA-tag (3); settings: one partner purified

ALFA-tag photobody (ALFA-Pb) 1, Tyr42ONBY, photocaged (VHH)
Kd [1]: 7900 nM

sfGFP-ALFA-tag (3)
Kd [2]: 3200 nM

B1: decaged ALFA-Pb displayed on E. coli cells (after irradiation at 365 nm) (VHH)
VHH: EVQLQESGGGLVQPGGSLRLSCTASGVTISALNAMAMGWYRQAPGERRVMVAAVSERGNAMYRESVQGRFTVTRDFTNKMVSLQMDNLKPEDTAVYYCHVLEDRVDSFHDYWGQGTQVTVSS
notes: Made from m2 by UV light
Kd [3]: 0.183 ± 0.006 nM

B2: ALFA-Nb (wild type) displayed on E. coli cells, unirradiated control (VHH)
VHH: B1 VHH
notes: ALFA-tag nanobody (ALFA-Nb), wild type; also called unirradiated ALFA-Nb control; ALFA-tag nanobody
Kd [4]: 0.346 ± 0.005 nM

Source: paper PMC9324849, “A Light‐Activatable Photocaged Variant of the Ultra‐High Affinity ALFA‐Tag Nanobody” (Chembiochem, 2022)
